Data on 125 sequences can be found in the supplement of paper PMC9112550, “Optimization of the antimicrobial peptide Bac7 by deep mutational scanning” (BMC Biology, 2022).

This data set has as its system Escherichia coli TOP10. Nature of the data set: shrunken log2 fold change of peptide-encoding DNA abundance (4.5 h post-induction vs induction); higher = less antimicrobial activity (less host growth inhibition). The settings on record: time post-induction: 4.5 h; library: site-saturation at positions 5, 18, 19, 20.
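Also: peptides expressed intracellularly from a pBAD plasmid library in pooled LB shake-flask culture, induced with 0.3% L-arabinose, DNA abundance read by NGS, three biological replicates, DESeq2 with apeglm shrinkage.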

Consider RRIRGRPPRLPRPRPRPYYRPRP, for which the “shrunken log2 fold change” value is -0.0655.

For RRIRIRPPRLPRPRPRPPPTPRP, the “shrunken log2 fold change” value is 0.834.

For RRIRARPPRLPRPRPRPDEQPRP, the “shrunken log2 fold change” value is 0.0992.

RRIRWRPPRLPRPRPRPRSLPRP: the “shrunken log2 fold change” value is -0.115.

For RRIRIRPPRLPRPRPRPAIYPRP, the “shrunken log2 fold change” value was -0.00708.

On to RRIRMRPPRLPRPRPRPHHDPRP, for which the “shrunken log2 fold change” value turned out to be 0.0126.

As for RRIRRRPPRLPRPRPRPTYPPRP, the “shrunken log2 fold change” value came out at 0.0623.

RRIRKRPPRLPRPRPRPDFYPRP: the “shrunken log2 fold change” value is -0.0302.

As to RRIRGRPPRLPRPRPRPMGTPRP, the “shrunken log2 fold change” value turned out to be 0.48.

Take RRIRTRPPRLPRPRPRPWMFPRP: the “shrunken log2 fold change” value is -0.355.

In the case of RRIRRRPPRLPRPRPRPNEQPRP, the “shrunken log2 fold change” value is 0.324.

On to RRIRYRPPRLPRPRPRPGEEPRP, for which the “shrunken log2 fold change” value came to 0.0322.

Regarding RRIRCRPPRLPRPRPRPYIGPRP, the “shrunken log2 fold change” value was -1.24.

RRIRHRPPRLPRPRPRPTHQPRP: the “shrunken log2 fold change” value stood at 0.243.

For the sequence RRIRVRPPRLPRPRPRPSMDPRP, the “shrunken log2 fold change” value was found to be 2.34.

For RRIRMRPPRLPRPRPRPDDLPRP, the “shrunken log2 fold change” value was found to be 2.58.

RRIRARPPRLPRPRPRPCATPRP: the “shrunken log2 fold change” value was found to be 1.06.

With RRIRRRPPRLPRPRPRPHSRPRP, the “shrunken log2 fold change” value worked out at 0.163.

Take RRIRCRPPRLPRPRPRPEGWPRP: the “shrunken log2 fold change” value was found to be 0.855.

As to RRIRARPPRLPRPRPRPDDCPRP, the “shrunken log2 fold change” value stood at 0.167.

Take RRIRRRPPRLPRPRPRPMIKPRP: the “shrunken log2 fold change” value came out at 0.0444.

As for RRIRRRPPRLPRPRPRPEDIPRP, the “shrunken log2 fold change” value is 0.06.

For RRIRWRPPRLPRPRPRPQAIPRP, the “shrunken log2 fold change” value is 0.204.

With RRIRMRPPRLPRPRPRPQDYPRP, the “shrunken log2 fold change” value is -0.0945.

Turning to RRIRYRPPRLPRPRPRPTADPRP, the “shrunken log2 fold change” value was -0.119.

RRIRSRPPRLPRPRPRPYMWPRP: the “shrunken log2 fold change” value is -0.744.

Take RRIRTRPPRLPRPRPRPRLIPRP: the “shrunken log2 fold change” value was -0.113.

As to RRIRDRPPRLPRPRPRPFKLPRP, the “shrunken log2 fold change” value came out at 0.0184.

As to RRIRRRPPRLPRPRPRPGARPRP, the “shrunken log2 fold change” value was determined as 0.507.

Turning to RRIRCRPPRLPRPRPRPQNGPRP, the “shrunken log2 fold change” value turned out to be 0.0924.

Turning to RRIRNRPPRLPRPRPRPFIPPRP, the “shrunken log2 fold change” value was -0.0923.

Consider RRIRWRPPRLPRPRPRPYEGPRP, for which the “shrunken log2 fold change” value was -0.874.

Regarding RRIRCRPPRLPRPRPRPYMWPRP, the “shrunken log2 fold change” value is -0.913.

As to RRIRHRPPRLPRPRPRPHCCPRP, the “shrunken log2 fold change” value is -0.156.

Turning to RRIRQRPPRLPRPRPRPWFSPRP, the “shrunken log2 fold change” value was -0.102.

Turning to RRIRPRPPRLPRPRPRPVAGPRP, the “shrunken log2 fold change” value was found to be 0.308.

As for RRIRHRPPRLPRPRPRPYPEPRP, the “shrunken log2 fold change” value was -0.267.

RRIRSRPPRLPRPRPRPANPPRP: the “shrunken log2 fold change” value was found to be 0.11.

For RRIRTRPPRLPRPRPRPQYDPRP, the “shrunken log2 fold change” value was -0.0819.

With RRIRMRPPRLPRPRPRPWFKPRP, the “shrunken log2 fold change” value was -0.665.

In the case of RRIRWRPPRLPRPRPRPYGIPRP, the “shrunken log2 fold change” value was -0.00133.

As for RRIRRRPPRLPRPRPRPACLPRP, the “shrunken log2 fold change” value is 0.623.

For RRIRKRPPRLPRPRPRPRTPPRP, the “shrunken log2 fold change” value was found to be 0.714.

As for RRIRLRPPRLPRPRPRPLEHPRP, the “shrunken log2 fold change” value is 0.0313.

As to RRIRFRPPRLPRPRPRPTHWPRP, the “shrunken log2 fold change” value was determined as 0.44.

Turning to RRIRIRPPRLPRPRPRPKNEPRP, the “shrunken log2 fold change” value was -0.14.

In the case of RRIRGRPPRLPRPRPRPCGTPRP, the “shrunken log2 fold change” value was found to be 1.44.

Regarding RRIRARPPRLPRPRPRPPPFPRP, the “shrunken log2 fold change” value was 0.762.

Turning to RRIRSRPPRLPRPRPRPFYMPRP, the “shrunken log2 fold change” value was -0.561.

Consider RRIRERPPRLPRPRPRPDSQPRP, for which the “shrunken log2 fold change” value is -0.0262.

RRIRVRPPRLPRPRPRPDYSPRP: the “shrunken log2 fold change” value was -0.107.

On to RRIRERPPRLPRPRPRPSHLPRP, for which the “shrunken log2 fold change” value is -0.188.

In the case of RRIRDRPPRLPRPRPRPWRAPRP, the “shrunken log2 fold change” value came out at 0.132.

RRIRERPPRLPRPRPRPWRTPRP: the “shrunken log2 fold change” value was -0.259.

Consider RRIRQRPPRLPRPRPRPNDLPRP, for which the “shrunken log2 fold change” value is -0.0128.

For RRIRGRPPRLPRPRPRPYGFPRP, the “shrunken log2 fold change” value is -0.0296.

Take RRIRMRPPRLPRPRPRPQDNPRP: the “shrunken log2 fold change” value was 0.013.

Regarding RRIRKRPPRLPRPRPRPHWCPRP, the “shrunken log2 fold change” value turned out to be 1.98.

As to RRIRTRPPRLPRPRPRPFIIPRP, the “shrunken log2 fold change” value was -0.919.

RRIRLRPPRLPRPRPRPVMRPRP: the “shrunken log2 fold change” value stood at 0.076.

As for RRIRPRPPRLPRPRPRPLYNPRP, the “shrunken log2 fold change” value is -0.623.

As for RRIRHRPPRLPRPRPRPSMIPRP, the “shrunken log2 fold change” value was -0.23.

With RRIRIRPPRLPRPRPRPNNLPRP, the “shrunken log2 fold change” value is -0.69.

As to RRIRTRPPRLPRPRPRPGYLPRP, the “shrunken log2 fold change” value amounted to 0.0359.

On to RRIRMRPPRLPRPRPRPIPMPRP, for which the “shrunken log2 fold change” value is 0.414.

Regarding RRIRMRPPRLPRPRPRPTVDPRP, the “shrunken log2 fold change” value is 0.00715.

On to RRIRLRPPRLPRPRPRPYWLPRP, for which the “shrunken log2 fold change” value is -0.54.

On to RRIRCRPPRLPRPRPRPTRKPRP, for which the “shrunken log2 fold change” value is -0.0442.

As to RRIRTRPPRLPRPRPRPLGQPRP, the “shrunken log2 fold change” value was -0.137.

Regarding RRIRSRPPRLPRPRPRPFHVPRP, the “shrunken log2 fold change” value was -0.108.

For the sequence RRIRIRPPRLPRPRPRPENNPRP, the “shrunken log2 fold change” value is -0.36.

For RRIRARPPRLPRPRPRPSGHPRP, the “shrunken log2 fold change” value is 0.168.

For RRIRCRPPRLPRPRPRPVEYPRP, the “shrunken log2 fold change” value was -0.0499.

Take RRIRERPPRLPRPRPRPKLAPRP: the “shrunken log2 fold change” value turned out to be 0.00329.

As for RRIRKRPPRLPRPRPRPAPGPRP, the “shrunken log2 fold change” value was determined as 0.637.

Turning to RRIRGRPPRLPRPRPRPIDQPRP, the “shrunken log2 fold change” value stood at 0.436.

For RRIRRRPPRLPRPRPRPCPAPRP, the “shrunken log2 fold change” value is 0.392.

Take RRIRQRPPRLPRPRPRPQNYPRP: the “shrunken log2 fold change” value is 0.0103.

On to RRIRTRPPRLPRPRPRPCVNPRP, for which the “shrunken log2 fold change” value is -0.0913.

Take RRIRRRPPRLPRPRPRPSEKPRP: the “shrunken log2 fold change” value was 0.51.

For the sequence RRIRCRPPRLPRPRPRPNYHPRP, the “shrunken log2 fold change” value is -0.93.

As for RRIRFRPPRLPRPRPRPGYWPRP, the “shrunken log2 fold change” value was 0.0724.

With RRIRARPPRLPRPRPRPIPKPRP, the “shrunken log2 fold change” value was 0.394.

With RRIRGRPPRLPRPRPRPIWFPRP, the “shrunken log2 fold change” value came to 0.31.

For the sequence RRIRKRPPRLPRPRPRPYMMPRP, the “shrunken log2 fold change” value was -0.103.

As to RRIRHRPPRLPRPRPRPLKHPRP, the “shrunken log2 fold change” value is -0.869.

On to RRIRPRPPRLPRPRPRPMQLPRP, for which the “shrunken log2 fold change” value worked out at 0.406.

Take RRIRERPPRLPRPRPRPQGTPRP: the “shrunken log2 fold change” value was 0.0468.

On to RRIRWRPPRLPRPRPRPPELPRP, for which the “shrunken log2 fold change” value is 0.38.

Turning to RRIRRRPPRLPRPRPRPGLPPRP, the “shrunken log2 fold change” value stood at 0.33.

As to RRIRPRPPRLPRPRPRPFTRPRP, the “shrunken log2 fold change” value is -0.00841.

As to RRIRDRPPRLPRPRPRPWDTPRP, the “shrunken log2 fold change” value was -0.029.

Consider RRIRKRPPRLPRPRPRPYEIPRP, for which the “shrunken log2 fold change” value was -0.0117.

In the case of RRIRGRPPRLPRPRPRPWDCPRP, the “shrunken log2 fold change” value was -0.0637.

Regarding RRIRMRPPRLPRPRPRPFVNPRP, the “shrunken log2 fold change” value is 1.6.

Regarding RRIRRRPPRLPRPRPRPWVYPRP, the “shrunken log2 fold change” value is 0.0234.

Take RRIRDRPPRLPRPRPRPSRMPRP: the “shrunken log2 fold change” value is -0.0207.

With RRIRSRPPRLPRPRPRPWTMPRP, the “shrunken log2 fold change” value is 0.0795.

Consider RRIRKRPPRLPRPRPRPHVRPRP, for which the “shrunken log2 fold change” value was -0.0167.

Consider RRIRARPPRLPRPRPRPSPHPRP, for which the “shrunken log2 fold change” value is 0.187.

Take RRIRYRPPRLPRPRPRPHNHPRP: the “shrunken log2 fold change” value was -1.01.

In the case of RRIRHRPPRLPRPRPRPKNDPRP, the “shrunken log2 fold change” value was -0.268.

In the case of RRIRMRPPRLPRPRPRPMSHPRP, the “shrunken log2 fold change” value was -0.121.

For the sequence RRIRLRPPRLPRPRPRPAHQPRP, the “shrunken log2 fold change” value is -0.0828.

As for RRIRLRPPRLPRPRPRPFDSPRP, the “shrunken log2 fold change” value is -0.174.

In the case of RRIRQRPPRLPRPRPRPKYMPRP, the “shrunken log2 fold change” value was -0.386.

For the sequence RRIRQRPPRLPRPRPRPHLTPRP, the “shrunken log2 fold change” value was -0.016.

For RRIRCRPPRLPRPRPRPPNNPRP, the “shrunken log2 fold change” value is -0.138.

For the sequence RRIRCRPPRLPRPRPRPAKPPRP, the “shrunken log2 fold change” value was -0.144.

As to RRIRARPPRLPRPRPRPTVSPRP, the “shrunken log2 fold change” value is 0.136.

Regarding RRIRCRPPRLPRPRPRPLNDPRP, the “shrunken log2 fold change” value was found to be 0.0553.

As to RRIRQRPPRLPRPRPRPLLNPRP, the “shrunken log2 fold change” value is -0.29.

For RRIRERPPRLPRPRPRPPCVPRP, the “shrunken log2 fold change” value is -0.159.

Regarding RRIRFRPPRLPRPRPRPAQPPRP, the “shrunken log2 fold change” value came out at 0.277.

As for RRIRARPPRLPRPRPRPPHIPRP, the “shrunken log2 fold change” value was 0.455.

With RRIRERPPRLPRPRPRPNFVPRP, the “shrunken log2 fold change” value came to 0.0109.

Consider RRIRERPPRLPRPRPRPCATPRP, for which the “shrunken log2 fold change” value was 0.0398.

Turning to RRIRKRPPRLPRPRPRPPGFPRP, the “shrunken log2 fold change” value was found to be 0.55.

As to RRIRHRPPRLPRPRPRPNAPPRP, the “shrunken log2 fold change” value was determined as 0.0964.

For RRIRYRPPRLPRPRPRPEEHPRP, the “shrunken log2 fold change” value amounted to 0.0203.

Take RRIRYRPPRLPRPRPRPVQTPRP: the “shrunken log2 fold change” value was -0.00992.

Turning to RRIRQRPPRLPRPRPRPQPCPRP, the “shrunken log2 fold change” value came to 0.149.

Take RRIRLRPPRLPRPRPRPKTPPRP: the “shrunken log2 fold change” value is 0.526.

On to RRIRPRPPRLPRPRPRPWLTPRP, for which the “shrunken log2 fold change” value was -0.123.

As for RRIRYRPPRLPRPRPRPIYMPRP, the “shrunken log2 fold change” value was -0.22.
